Test results reported in the supplement of paper PMC10567573.

B1: ZNF511 (parent)
chain: HLYPADFRFDKPKKSRSPASAEAP
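Note: lentivirally expressed fusions sorted by FACS into six bins by GFP to DsRed ratio, PSI derived from sequencing read proportions per bin multiplied by bin number.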

Variants of: B1
Test: protein stability index of a GFP-peptide fusion (GPS, HEK-293T) (PSI 1-6); higher = more stable
Details: c terminus: a fixed tail appended
In the case of HLYPADFWFDKPKKSRSPASAEAP, the protein stability index is reported as 1.8. With HLYPADFYFDKPKKSRSPASAEAP the protein stability index was 2.37. In the case of HLYPADFRADKPKKSRSPASAEAP, the protein stability index is reported as 1.29. Work on HLYPADFRCDKPKKSRSPASAEAP yielded a protein stability index of 2.61. HLYPADFRDDKPKKSRSPASAEAP gave a protein stability index of 2.1. HLYPADFREDKPKKSRSPASAEAP showed a protein stability index of 1.88. HLYPADFRGDKPKKSRSPASAEAP showed a protein stability index of 2.63. HLYPADFRHDKPKKSRSPASAEAP gave a protein stability index of 2.91. Work on HLYPADFRIDKPKKSRSPASAEAP yielded a protein stability index of 2.49. Variant HLYPADFRKDKPKKSRSPASAEAP has a protein stability index of 4.12. For HLYPADFRLDKPKKSRSPASAEAP, the protein stability index was 3.18. HLYPADFRMDKPKKSRSPASAEAP gave a protein stability index of 2.01. For HLYPADFRNDKPKKSRSPASAEAP, the protein stability index was 2.63. In the case of HLYPADFRPDKPKKSRSPASAEAP, the protein stability index is reported as 2.35. HLYPADFRQDKPKKSRSPASAEAP showed a protein stability index of 2. Work on HLYPADFRRDKPKKSRSPASAEAP yielded a protein stability index of 3.71. In the case of HLYPADFRSDKPKKSRSPASAEAP, the protein stability index is reported as 2.05. With HLYPADFRTDKPKKSRSPASAEAP the protein stability index was 2.85. HLYPADFRWDKPKKSRSPASAEAP showed a protein stability index of 2.82. For HLYPADFRYDKPKKSRSPASAEAP, the protein stability index was 3.29. For HLYPADFRFAKPKKSRSPASAEAP, the protein stability index was 2.16. HLYPADFRFCKPKKSRSPASAEAP gave a protein stability index of 2.15. For HLYPADFRFEKPKKSRSPASAEAP, the protein stability index was 3.08. HLYPADFRFFKPKKSRSPASAEAP showed a protein stability index of 2.83. With HLYPADFRFGKPKKSRSPASAEAP the protein stability index was 2.85. HLYPADFRFHKPKKSRSPASAEAP showed a protein stability index of 1.52. HLYPADFRFIKPKKSRSPASAEAP showed a protein stability index of 1.87. In the case of HLYPADFRFKKPKKSRSPASAEAP, the protein stability index is reported as 2.8. With HLYPADFRFLKPKKSRSPASAEAP the protein stability index was 3.01. HLYPADFRFMKPKKSRSPASAEAP showed a protein stability index of 2.99. With HLYPADFRFNKPKKSRSPASAEAP the protein stability index was 2.39. For HLYPADFRFPKPKKSRSPASAEAP, the protein stability index was 2.54. HLYPADFRFQKPKKSRSPASAEAP showed a protein stability index of 2.26. Variant HLYPADFRFRKPKKSRSPASAEAP has a protein stability index of 2.71. Work on HLYPADFRFSKPKKSRSPASAEAP yielded a protein stability index of 3.22. For HLYPADFRFTKPKKSRSPASAEAP, the protein stability index was 2.69. Work on HLYPADFRFVKPKKSRSPASAEAP yielded a protein stability index of 2.62. In the case of HLYPADFRFWKPKKSRSPASAEAP, the protein stability index is reported as 2.92. HLYPADFRFYKPKKSRSPASAEAP showed a protein stability index of 2.87. For HLYPADFRFDAPKKSRSPASAEAP, the protein stability index was 3.14. Work on HLYPADFRFDCPKKSRSPASAEAP yielded a protein stability index of 3.21. Variant HLYPADFRFDDPKKSRSPASAEAP has a protein stability index of 3.23. HLYPADFRFDEPKKSRSPASAEAP gave a protein stability index of 3.01. Variant HLYPADFRFDFPKKSRSPASAEAP has a protein stability index of 2.95. With HLYPADFRFDGPKKSRSPASAEAP the protein stability index was 3.5. HLYPADFRFDHPKKSRSPASAEAP gave a protein stability index of 2.98. Work on HLYPADFRFDIPKKSRSPASAEAP yielded a protein stability index of 3.56. For HLYPADFRFDLPKKSRSPASAEAP, the protein stability index was 2.72. For HLYPADFRFDMPKKSRSPASAEAP, the protein stability index was 2.62. HLYPADFRFDNPKKSRSPASAEAP showed a protein stability index of 3.37. Work on HLYPADFRFDPPKKSRSPASAEAP yielded a protein stability index of 2.87. HLYPADFRFDQPKKSRSPASAEAP gave a protein stability index of 3.24. Work on HLYPADFRFDRPKKSRSPASAEAP yielded a protein stability index of 2.89. With HLYPADFRFDSPKKSRSPASAEAP the protein stability index was 3.32. HLYPADFRFDTPKKSRSPASAEAP gave a protein stability index of 3.02. With HLYPADFRFDVPKKSRSPASAEAP the protein stability index was 3.52. With HLYPADFRFDWPKKSRSPASAEAP the protein stability index was 2.11. In the case of HLYPADFRFDYPKKSRSPASAEAP, the protein stability index is reported as 2.44. HLYPADFRFDKAKKSRSPASAEAP showed a protein stability index of 2.83. HLYPADFRFDKCKKSRSPASAEAP gave a protein stability index of 2.94. In the case of HLYPADFRFDKDKKSRSPASAEAP, the protein stability index is reported as 3.2. HLYPADFRFDKEKKSRSPASAEAP showed a protein stability index of 3.69. HLYPADFRFDKFKKSRSPASAEAP showed a protein stability index of 3.14. For HLYPADFRFDKGKKSRSPASAEAP, the protein stability index was 3.02. In the case of HLYPADFRFDKHKKSRSPASAEAP, the protein stability index is reported as 2.89. Variant HLYPADFRFDKIKKSRSPASAEAP has a protein stability index of 3.72. Variant HLYPADFRFDKKKKSRSPASAEAP has a protein stability index of 2.96. With HLYPADFRFDKLKKSRSPASAEAP the protein stability index was 3.25. Work on HLYPADFRFDKMKKSRSPASAEAP yielded a protein stability index of 2.72. In the case of HLYPADFRFDKNKKSRSPASAEAP, the protein stability index is reported as 2.65. For HLYPADFRFDKQKKSRSPASAEAP, the protein stability index was 3.18. For HLYPADFRFDKRKKSRSPASAEAP, the protein stability index was 2.47. HLYPADFRFDKSKKSRSPASAEAP showed a protein stability index of 2.64. HLYPADFRFDKTKKSRSPASAEAP showed a protein stability index of 3.7. HLYPADFRFDKVKKSRSPASAEAP gave a protein stability index of 2.8. For HLYPADFRFDKWKKSRSPASAEAP, the protein stability index was 3.02. Variant HLYPADFRFDKYKKSRSPASAEAP has a protein stability index of 2.94. Work on HLYPADFRFDKPAKSRSPASAEAP yielded a protein stability index of 3.07. HLYPADFRFDKPCKSRSPASAEAP showed a protein stability index of 2.8. HLYPADFRFDKPDKSRSPASAEAP gave a protein stability index of 3.04. Work on HLYPADFRFDKPEKSRSPASAEAP yielded a protein stability index of 3.34. Work on HLYPADFRFDKPFKSRSPASAEAP yielded a protein stability index of 2.7. Work on HLYPADFRFDKPGKSRSPASAEAP yielded a protein stability index of 2.92. HLYPADFRFDKPHKSRSPASAEAP gave a protein stability index of 2.78. With HLYPADFRFDKPIKSRSPASAEAP the protein stability index was 3. HLYPADFRFDKPLKSRSPASAEAP showed a protein stability index of 2.94. HLYPADFRFDKPMKSRSPASAEAP gave a protein stability index of 2.84. For HLYPADFRFDKPNKSRSPASAEAP, the protein stability index was 2.7. HLYPADFRFDKPPKSRSPASAEAP showed a protein stability index of 3.64. With HLYPADFRFDKPQKSRSPASAEAP the protein stability index was 3.4. HLYPADFRFDKPRKSRSPASAEAP showed a protein stability index of 3.2. Work on HLYPADFRFDKPSKSRSPASAEAP yielded a protein stability index of 2.91. Variant HLYPADFRFDKPTKSRSPASAEAP has a protein stability index of 3.18. Work on HLYPADFRFDKPVKSRSPASAEAP yielded a protein stability index of 2.22.
